Measurements taken from patent US20210063414A1, “METHODS FOR PREVENTING AND/OR TREATING BONE LOSS CONDITIONS BY MODULATING IRISIN” (Dana-Farber Cancer Institute, Inc., priority 2018, published 2021).

Legend:
[1] = target: T1, MLO-Y4 cell surface proteins (Mus musculus, UniProt Q9CXD6); experiment: Crosslinking/co-immunoprecipitation/mass spectrometry (TMT quantitative proteomics) to identify irisin receptors; assay type: binding; conditions: co-precipitated protein Mcur1 (MCUR1_MOUSE)
T1 construct: endogenous in cells; host or cells: MLO-Y4
T1 sequence (Q9CXD6 1-340): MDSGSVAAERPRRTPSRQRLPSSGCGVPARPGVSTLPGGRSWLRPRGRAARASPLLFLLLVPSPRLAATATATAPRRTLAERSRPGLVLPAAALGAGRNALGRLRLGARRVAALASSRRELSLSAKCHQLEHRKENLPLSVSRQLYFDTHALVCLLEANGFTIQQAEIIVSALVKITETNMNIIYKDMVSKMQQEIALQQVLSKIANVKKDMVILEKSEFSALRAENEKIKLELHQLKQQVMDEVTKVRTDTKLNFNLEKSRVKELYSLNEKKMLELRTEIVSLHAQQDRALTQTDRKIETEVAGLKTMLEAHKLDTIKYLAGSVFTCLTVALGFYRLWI
Outline: (§1)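 Relative protein abundance came from 6-plex TMT MS3 quantitation on an Orbitrap Fusion Lumos, after in-gel trypsin digestion of Coomassie-stained SDS-PAGE lanes. Input was a Ni-NTA pulldown (250 mM imidazole elution) of lysates from murine MLO-Y4 cells. These cells were treated on ice with His-tagged irisin or adipsin (10 nM, 20 min) in serum-free medium, then crosslinked with 1.5 mM DTSSP for 30 min.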

[2] = target: T2, MLO-Y4 cell surface proteins (Mus musculus, UniProt Q9DCW4); experiment: as above; assay type: binding; conditions: co-precipitated protein Etfb (ETFB_MOUSE)
T2 construct: endogenous in cells; host or cells: MLO-Y4
T2 sequence (Q9DCW4 1-255): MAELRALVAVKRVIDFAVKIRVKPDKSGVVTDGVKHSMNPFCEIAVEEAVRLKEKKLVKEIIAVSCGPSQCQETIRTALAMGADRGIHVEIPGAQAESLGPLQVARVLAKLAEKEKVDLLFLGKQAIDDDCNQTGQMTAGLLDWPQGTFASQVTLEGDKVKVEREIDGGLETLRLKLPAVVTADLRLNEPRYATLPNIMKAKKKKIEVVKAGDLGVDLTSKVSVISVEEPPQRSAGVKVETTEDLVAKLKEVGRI
Outline: as §1

TMT signal-to-noise ratio [1]: 1631.69
TMT signal-to-noise ratio [2]: 730.275
Substance: adipsin
